Source: article PMC4499121
Numbering of substitutions follows the chain as printed.

Legend:
[1] = molecular target: T1, Interleukin 10 receptor alpha chain, Fc fusion (human, UniProt Q13651 22-235); experiment: double filter binding; text: mutant with highest change in affinity; Fig 3D legend gives that to Mutant 2; Binding buffer (composition and pH not given), 37 C, 5' 32P RNA with a range of protein concentrations, nitrocellulose/nylon double filter; Kd = protein concent
T1 sequence: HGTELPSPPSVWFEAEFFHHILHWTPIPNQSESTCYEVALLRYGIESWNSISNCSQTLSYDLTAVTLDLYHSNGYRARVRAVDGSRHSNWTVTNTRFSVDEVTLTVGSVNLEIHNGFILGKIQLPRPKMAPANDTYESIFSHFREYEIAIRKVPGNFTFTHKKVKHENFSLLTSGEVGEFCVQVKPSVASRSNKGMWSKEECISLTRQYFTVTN

[2] = molecular target: T1, Interleukin 10 receptor alpha chain, Fc …; experiment: double filter binding; improved relative to cluster 1 seed; Binding buffer (composition and pH not given), 37 C, 5' 32P RNA with a range of protein concentrations, nitrocellulose/nylon double filter; Kd = protein concent

B1: cluster 1 Mutant 1 (ssRNA)
RNA: GGGAGAGAGGAAGAGGGAUGGGUAACACUCGAUUCUCCUAGCCCUCUAGAAAUUCCCCUCCCCGACGACUCGCUGAGAUCGAGA
modifications: DuraScribe IVT transcript (2'-F pyrimidines implied by the kit, not stated)
[1]
  Kd: 27 nM

B2: cluster 1 Mutant 2 (ssRNA)
RNA: B1 RNA with G41U, U45G
modifications: DuraScribe IVT transcript (2'-F pyrimidines implied by the kit, not stated)
[2]
  binding result: binds
